# From the DeepSol protein solubility set
# Test: soluble on expression in E. coli; label from the status in PepcDB or PDB records
row,Sequence,soluble on expression in E. coli
1,MSLGRDKDLNILCWEGYNSAQVLDPFRKLTGATVKAESSTNDPTMINRLRAGETNVWDLINVNNPWARKILWPQNLIKPLDRAEFEPFFDKMLPEFKAPYRWAMSDDGKDLLGMAQRFGPFCFVVDTDKISRQTAEDQGWDLWNDKALAGRYGIQESDDWNVFGLFLIAGINPFKTHTEAELAKFEETAKAVFKGAKVVGDMASMNQALVSGEIDLYLSGGTYTVSPARAEGLGNLRGITPLRGPIDGKGGVMWVEITSQVNNPQLSPLAGQFLKHVQTPQVAHTVAFAEGTFNPIAQMGNPDCFKLFSKAELDAIQWDSLAEEMARSVAYDIVPDYDKALDLMTAAKRVRGEGHHHHHH,soluble
2,GMRNPSEDHMMRTPYQIVADHYAASDRHDPAAMMADIAPAIEWTEMAGFPCAGTYRSADEIVRNVFRRLGEEWDGYTFKLDALHDAGDTVIGVGRYSGTYRRTGKSFECRVAHVWRVDAGKIVHFEQFTDTLLVAQAMQP,soluble
3,MGHHHHHHSHMLQPPKIVAELSANHNQDLNLAKESLHAIKESGADFVKLQTYTPSCMTLNSKEDPFIIQGTLWDKENLYELYQKASTPLEWHAELFELARKLDLGIFSSPFSSQALELLESLNCPMYKIASFEIVDLDLIEKAARTQKPIILSSGIATHTELQDAISLCRRVNNFDITLLKCVSAYPSKIEDANLLSMVKLGEIFGVKFGLSDHTIGSLCPILATTLGASMIEKHFILNKSLQTPDSAFSMDFNGFKSMVEAIKQSVLALGEEEPRINPKTLEKRRFFARSLFVIKDIQKGEALTENNIKALRPNLGLHPKFYKEILGQKASKFLKANTPLSADDIERSL,soluble
4,MAHHHHHHMRPGRLDKTIVVPLPDIKGRYEILKMYSSKIVLSKDVDLHVLSRRTVGMTGADLNNILNIAAIKCSVEGKKAVDMNSIEQAFDRVVVGLQRKSPLNEEEKNITAYHEGGHTLVNFYTKGSDPVHKATIMPRGMSLGVTWKIPISDKYSQKIRDVQSEIDILMGGLVSEEIIFGKNNVTTGCSSDLQRATHIAQSLVMNYGVGINEENISMFLQDKKNISEEMKIKIDKSIQRILLDSYNRAKKVLNQHIDELHRVASALVEYETLTSDEIKLAMQGKHDQIRKNRELKQKEFNLKDSRIS,not soluble
5,ASQPLIQDPVLIEYINHLGNSLVKNAQGVNYAFEFFLINNNELNAFAFFGGHVGIHSGLITTADTESELASVIAHEISHVTQRHLARRLESQSQTQGLTMAAMLSSVLITLVNPTVGIAALSASMAVTQQASINYTRGNEKEADRVGIALLASSNYDPQGAASFFSKMSTKYRYASKPPAMLLTHPLPESRIADARQRALNYPARPLPPSLGFELTKARLKSRYQGEAKSNISFFKLQLEKKRYAIKAAAQYGLALSYFENKQTSEALQLLEMLEKNDKDNLFYVDALTDVYIANNQANKAIKMLERLNLFMPNNQVVSLNYANALLSVKEYDLAAQILQDFLLVNPGNFIAYDILTTLYRTQEKTGLMHMSKAEVYALLGAYPKAVDELQTSYAFLDEQPLMQK,not soluble
6,MLRAKVRRIALANQKGGVGKTTTAINLAAYLARLGKRVLLVDLDPQGNATSGLGVRAERGVYHLLQGEPLEGLVHPVDGFHLLPATPDLVGATVELAGAPTALREALRDEGYDLVLLDAPPSLSPLTLNALAAAEGVVVPVQAEYYALEGVAGLLATLEEVRAGLNPRLRLLGILVTMYDGRTLLAQQVEAQLRAHFGEKVFWTVIPRNVRLAEAPSFGKTIAQHAPTSPGAHAYRRLAEEVMARVQEAGSHHHHHH,soluble
7,MGSDKIHHHHHHMNKEHICFDFDSNPAFQTIDYEVAARSFVPGYESIFNMAVALLDASVPEPAHLLIVAAGGGMELITFGQARSHWLFTGVDPSAKMLAIAQEKVAKQGLTNRVKLHQGLTHELPVTTLYDAATCILAMHFLPDDGAKLLLLQSISQRLKPGAKLILVDLCEEKGSERFNDFLKAYKYHARNLGMSPEIVEETASKVVHIHCISEERTIELLQEANFSKITRFFTALWFRGWIATKNT,not soluble
8,MYKEDTIAAISTPHGAGGVGIIRISGDKAFEIAERIFRGKKDFKLIRSHTINYGKIVNPENGAVLDEVLLSKMEKPKTFTREDVVEINCHGGMVVLKNILELCIKEGARLAEPGEFTKRAFLNGRIDLSQAEAVIDLINSKTNESSKAAISQLEGKLSRKIKDARSKLIELLAHIEVTVDYPEHDIEEITGNMVYEEIGKIKEKLCDIVKSFERGRIIREGIDAVIIGKPNVGKSSLLNELSGKSKAIVTDIPGTTRDIIEEYININGIPLRIIDTAGIRETEDVVEKIGVEKTHRAIDEADLVIMMIDAKRGMDEDDNRILTMLGDKKLIILINKIDLVDEKQINEIESLLKGRKCIRTSVKEGTGISELENAITELFVQGEVSVNEEILLTNIRHKNLIDMAISSIEKAMESIDGSMPLDLVSIDITDAADYLGQITGESVSEDVMHEIFSKFCLGK,not soluble
9,MSQPCPCGSADEYSLCCGRIVSGERVAPDPSHLMRSRYCAFVMKDADYLIKSWHPTCNAAAFRDDIIAGFANTRWLGLTIFEHTWSEAENTGYVSFIARFSEQGKNGAIIERSRFIKENGQWYYIDGTRPQLGRNDPCPCGSGKKFKKCCGQ,not soluble
10,MGALGYHPYFESNMIHSMTAFAADEHLTPWGLLACELRSVNHRFLDIVIRLPEELRALEPQLRERVAARVSRGKLDLTVRLSPQEIHTGKLVVNELLLSQLSTLALRLSAQFPALRVTFAELLQIPGVLKGEQIDMATLQGHAVALLDKVLNNFIATREREGLKMQAMIAQRASAIERIVGEVRILIPTIREGQHNKLSARMNHLSYPVDPGRIEQELVLWLQKLDVDEELDRLSSHISELHRILQQREPVGRRLDFLMQEFNREANTLGSKSVDSRTSNATIELKVLIDQIREQVQNIE,soluble
11,MGSDKIHHHHHHMEGKVDVLLTWLKKSDKFYIAPNISICESPETGRGIVLSHGSIRKNDIIVSVPSSKQLNFHTILYHISKFNKELNIPGITIDRKPINYEDNIIEAENKAWADPRYGLYSELSKEFLLSLSSFQLVSFYILVENFLLPKWTHNEIYSDWKPFFDVWPSMEELRSIPAIWNCDPNSRYHSLIEYLPAASRKHMARISGLVREDWETISEVVLKWNEIYGSLSCTKNSDKFTSDELFSLFVHVYFIINSRCLYAKIPLKIEDSPSNFTLVPYVDFMNHICESDLHCYPQLSPQLRSEGENIIGIGQFTIRCGDHLYDNINEELFLNYGAHSNDFLLNEYGFVVDGNKWNYLDISDEIIELIDDDKKEVKTFLLEHDYWGDYTINETDISYRIFVALNYYVTRDERRVRKFIEGYISEDYFKPKISSVLKELLVSLTAKYTKTLSELTEKVSNLENNLCLQNLITIYKGYIKILTQHLQDLQS,not soluble
12,MSAIIDPSTGKPFKADKQIMGEDIARAYTTGIRNPRPTSVASTITPQRLAGVLRSVIDGNDPEAYMTLAEEIEERDLHYAAQLRTRKFAVAAITPTVEAASDDAIDVLMAERAREIINDDQIPELFFDLLDGLGKGLAVVQILWDTKSTPWKPQDYKWVDPRYLRQDQQTLEQILLISEDAPMGAELEPYKFIIHTPRSKSGSVWRNGLARLVAVMYMLKSFTVRDWWAFAEVFGVPVRVGKYGANASESDISTLINAIGRIASDAGAVIPESMKLELIETAKGNGGDTLFENMARWCDEQISKAVLGQTMTADNGSSQSQATVHNEVRIDIAKWDARQLEASINEYLIKPYIILNWGEQLRYPKVRIKVPEPEDLQLLVNSLTPLIDRGLKVSASEMADKLGLGTVDADEDILLPFQTVGIQAMPTALNRANSQTIAINQVRNTAEREIDNLANEAMGEWEQVAEEFMNPIIDLANKSASYDEFAAGLPALQQQLGAEQFIAQMAQYMFQLRGLGDAQDG,soluble
13,MKAANSGRTAAALECFERVVKLQSTPVNWSYLAFCVARERQQFEHATRLCEEAVRREPRSSVLYLNLGKVYLLSGRKDDAIRTFRQGLLYERNTLIESELRRLGLRKPPVLNFLAREHPVNKYLGIMLKKLKIRLEHHHHHH,not soluble
14,MGLALQHSHRWDLSPREAANLQTRLRPLVLAEDALPDEIRTVAGVDVGFEDHGRITRAAVAVLDFPSLRPSDQAIVRRPTRFPYVPGLLSFRELPALLEALERLNLLPGLILVDGHGYAHPRRFGIACHLGVLTGIPTIGVGKTRLVGTHGELAEDRGSWIPLIDGDETVGAVVRTRRGVQPVYVSVGHRLSLPTAVDWVLRCTPRYRLPETTRQAHRLASALEHHHHHH,not soluble
